The supplement of paper PMC10201428
± gives the standard deviation of the averaged measurements.

B1: library; a variant is named by its letters at N, in order (parent)
chain: ACATTTGTTGATACAACCATAAAATGATAATTACACCCATAAATTGATAATTATCACACCCANNNNNNNNNNNNNNCTCTGATCATAGTCAGACCAACATTGCTACGACCCGTATTCGCACCGACAC
B2: library; a variant is named by its letters at N, in order (parent)
chain: AATGTTGTTGATGCAACCATAAAGTGATATTTAATAATTATTTATAATCAGCAACTTAACCACAAAACAACCATATATTGATATNTCACAAAACAACCATAANTTGATATTTTTGTGAATCGAGTATTTCAGCAAAACTACTGCAGTAAGAA

Key:
Conditions in all cases: with VchCAST RNA-guided transposition machinery (E. coli BL21(DE3) host, lacZ target)
[1] = variants of: B1; experiment: relative integration efficiency (T-RL orientation) vs wild-type transposon end (log2 (normalized fold change)); transposon end mutated: right end (5 bp flank + 75 bp right end); higher = more efficient transposition
Protocol: (§1)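 Pooled, barcoded VchCAST (Tn6677) mini-transposon donor libraries; each variable transposon-end sequence sits in a fixed pDonor mini-transposon context (10-bp barcode and cargo not included). Left- or right-end libraries were co-transformed with pEffector (TniQ-Cascade, TnsABC, lacZ crRNA, T7, 0.1 mM IPTG) into E. coli BL21(DE3) and grown 18 h at 37 C. T-LR and T-RL junction amplicons were sequenced; output/input barcode fold change was normalised to the mean of four wild-type barcodes and log2-transformed. Two biological replicates; zero-count/undetected variants carry floor values (-10 / -15), censored here. Barcode uncoupling by PCR recombination adds noise.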

[2] = variants of: B1; experiment: relative integration efficiency (T-LR orientation) vs wild-type transposon end (log2 (normalized fold change)); transposon end mutated: right end (5 bp flank + 75 bp right end); higher = more efficient transposition
Protocol: as §1

[3] = variants of: B2; experiment: relative integration efficiency (T-RL orientation) vs wild-type transposon end (log2 (normalized fold change)); transposon end mutated: left end; higher = more efficient transposition
Summary of the method: (§2)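 A T7-driven effector plasmid encoding a CRISPR array, tniQ-cas8-cas7-cas6 and tnsA-tnsB-tnsC was co-transformed into E. coli BL21(DE3) together with a pUC57 mini-transposon donor holding barcoded pools of 1549 left-end or 1849 right-end variants. Transformants were plated with 0.1 mM IPTG at 37°C for 18 h. Illumina sequencing of PCR-amplified input plasmids and genomic integration junctions gave barcode abundances, and relative integration efficiency is their output/input fold change, normalised to reference barcodes and log-transformed.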

[4] = variants of: B2; experiment: relative integration efficiency (T-LR orientation) vs wild-type transposon end (log2 (normalized fold change)); transposon end mutated: left end; higher = more efficient transposition
Summary of the method: as §2

| Variant | relative integration efficiency (log2) [1] | relative integration efficiency (log2) [2] | relative integration efficiency (log2) [3] | relative integration efficiency (log2) [4] |
| --- | --- | --- | --- | --- |
| TAAATTGATATACG C77G | 0.221 ± 0.0027 | 0.3 ± 0.0057 | – | – |
| GAAATTGATATTGC | -0.446 ± 0.11 | 2.2 ± 0.046 | – | – |
| TAAATTGATATTGC A16C | -0.0617 ± 0.0049 | 0.0173 ± 0.062 | – | – |
| TAAATTGATATTGC A16T | -0.582 ± 0.072 | -0.311 ± 0.2 | – | – |
| TAAATTGATATTGC A16G | -0.119 ± 0.073 | -0.0536 ± 0.39 | – | – |
| TAAATTGATATTGC A3T | -0.114 ± 0.0076 | -0.195 ± 0.15 | – | – |
| TAAATTGATATTGC A3C | -0.109 ± 0.047 | -0.337 ± 0.37 | – | – |
| TAAATTGATATTGC A3G | 0.00116 ± 0.033 | 0.0517 ± 0.23 | – | – |
| TAAAATGATAATTA C59A | 0.000716 ± 0.075 | -0.0217 ± 0.15 | – | – |
| TAAATTGATATTGC A1T | -0.0487 ± 0.062 | -0.0517 ± 0.26 | – | – |
| TAAATTGATATTGC A1G | -0.139 ± 0.068 | -0.251 ± 0.32 | – | – |
| TAAATTGATATTGC A1C | -0.117 ± 0.016 | -0.165 ± 0.27 | – | – |
| TAAATTGATATTGC A19G | -0.155 ± 0.081 | -0.378 ± 0.051 | – | – |
| TAAATTGATATTGC A19T | -0.574 ± 0.03 | -0.267 ± 0.084 | – | – |
| TAAATTGATATTGC A19C | -1.18 ± 0.12 | -1.16 ± 0.11 | – | – |
| TAAAAACTTATTGC | -0.368 ± 0.07 | 2.34 ± 0.09 | – | – |
| TAAATACTAATTGC | -0.376 ± 0.27 | 2.61 ± 0.13 | – | – |
| TAAATGTCGATTGC | -0.671 ± 0.07 | 2.165 ± 0.0045 | – | – |
| TAAATTGAATAAGC | -0.554 ± 0.076 | 1.55 ± 0.079 | – | – |
| CG T38C A40G T42A A44T A47T T48A C49T G51C C52A A53G A54T C55T T56G | – | – | -5.99 ± 0.93 | – |
| CG A69C A70C C71A C72A | – | – | -1.88 ± 0.72 | -1.64 ± 0.34 |
| CG A22G | – | – | -0.733 ± 0.88 | -1.1 ± 1.1 |
| CG T45C A46T A47T C49T A50G C52T A53T T56A A59T C60T | – | – | -6.51 ± 2 | – |

| Variant | relative integration efficiency (log2) [1] | relative integration efficiency (log2) [2] | relative integration efficiency (log2) [3] | relative integration efficiency (log2) [4] |
| --- | --- | --- | --- | --- |
| CG A23T G24C | – | – | -0.0468 ± 0.13 | 0.111 ± 0.07 |
| TA A16C G24T T32G A33C T76A A77G C87T T104A T110A T113A | – | – | -1.38 ± 0.49 | -0.782 ± 0.82 |
| CG G4C T5A T6A G7C | – | – | -7.62 ± 0.39 | – |
| CG A44G T45C A47T T48A C49A G51A C52A A53T A54T T56A A58C | – | – | -6.6 ± 1.8 | – |
| CG T20G T74G T100G | – | – | -6.64 ± 1.3 | – |
| CG A27T A81T A107T | – | – | -3.03 ± 1.3 | -2.46 ± 1.4 |
| TA A70C T76A T86G T104G T113A | – | – | -0.145 ± 0.22 | 0.359 ± 0.88 |
| CG T41A A44G A46G T48G A50G C52A A53T C55A T56C T57A A59T C60T | – | – | -4.27 ± 0.75 | – |
| CG T6G | – | – | -7.013 ± 0.063 | – |
| CG T8G T9G | – | – | -6.84 ± 0.88 | – |
| CT A21C A22C A23C G24T A75C T76G A77C T78G A101C A102C T104G | – | – | -7.99 ± 1.6 | – |
| CG C55A T56G T57G A58C | – | – | -2.14 ± 0.62 | – |
| CG A27T | – | – | -0.545 ± 0.55 | -1.01 ± 1.3 |
| CG T48A C49T A50T C52T A53G C55G T56C T57G A58G C60T C61A A66T A67T | – | – | -4.31 ± 0.86 | – |
| CG G7C T8A | – | – | -6.52 ± 0.12 | – |
| CG T3A G4C T5A T6A | – | – | -6.84 ± 0.4 | – |
| CG C49G | – | – | 0.127 ± 0.33 | 0.811 ± 0.52 |
| CG A81C T82G | – | – | -0.963 ± 0.26 | -1.43 ± 0.033 |
| CG T6A G7C | – | – | -6.27 ± 0.56 | – |
| CA A16C G24T T30A A96C T110A T113A | – | – | -0.208 ± 0.19 | -0.499 ± 0.66 |
| CG T6G G7T | – | – | -9.04 ± 0.91 | – |
| CG T111G T112G T113G T114G | – | – | -0.798 ± 0.34 | -0.443 ± 0.72 |
| CG A70G | – | – | -0.664 ± 0.41 | -0.515 ± 0.21 |

| Variant | relative integration efficiency (log2) [1] | relative integration efficiency (log2) [2] | relative integration efficiency (log2) [3] | relative integration efficiency (log2) [4] |
| --- | --- | --- | --- | --- |
| CG G10C A11T T12A G13C | – | – | -0.736 ± 0.86 | – |
| CG C49A A50T C52T T56C T57A C60A C61G A62T C63A | – | – | -5.28 ± 0.94 | -3.63 ± 0.43 |
| CA A16C G24T T32G A33C A102T T111C T113C | – | – | -0.751 ± 0.51 | -0.854 ± 0.58 |
| CG A88T C89G A90T A91T | – | – | -0.432 ± 0.33 | -0.283 ± 0.86 |
| CG T6A G7C T8A T9A | – | – | -6.58 ± 0.36 | – |
| CG A19C T20G A21C A22C | – | – | -3.48 ± 1.4 | – |
| TA G24A T30A A70C T76A T84A C87A A102T T111C T113C | – | – | -0.0645 ± 0.27 | -0.133 ± 0.92 |
| CG T20C | – | – | -1.07 ± 0.49 | -1.08 ± 0.45 |
| CG T82A | – | – | -0.103 ± 0.77 | – |
| CG T42A A44T C49A G51T C52T C55T A59T C60A C61T C63T A64T A65T | – | – | -2.87 ± 0.52 | – |
| CG A75C | – | – | 0.219 ± 0.63 | 0.0557 ± 0.24 |
| CG T105C | – | – | -0.583 ± 0.2 | -0.552 ± 0.81 |
| CG T5A T6A G7C T8A | – | – | -7.12 ± 1.1 | – |
| CG A33G | – | – | 0.292 ± 0.074 | 0.00747 ± 0.0001 |
| CG T8G T9G G10T A11C | – | – | -7.43 ± 0.35 | – |
| CG T8C | – | – | -1.39 ± 0.56 | -0.996 ± 0.69 |
| CG C49G A50T C52A A53T C55A T56C T57A A59T C61A A62C C63A A64G | – | – | -3.37 ± 1.4 | – |
| CG A22C T76G A102C | – | – | -3.7 ± 1.5 | – |
| CG A19C A73C A99C | – | – | -6.27 ± 1.8 | – |
| CG G117C A118T A119T T120A | – | – | 0.268 ± 0.02 | 0.101 ± 0.3 |
| CG G7T T8G T9G G10T | – | – | -7.84 ± 0.54 | – |
| CG A1C | – | – | -0.0236 ± 0.1 | 0.307 ± 0.19 |
| CG T114G G115T | – | – | -0.471 ± 0.32 | 0.781 ± 0.54 |
